From patent US20110002926A1 (MEDICAL RESEARCH COUNCIL, published 2011)
Like-named read-outs stand apart in the source and are kept apart here. Where no end group is shown, it is not given here.

Legend:
Peptide D3 [1] = biological target: T1, Peptide D3 (also: C-terminal linker GSGK-biotin, biotin attachment not given here); assay: peptide ELISA, signal as percent of maximum H6 binding
T1 peptide: QLINTNGSWHINGSGK

[2] = biological target: HCV E1E2 glycoproteins of isolate 4.21.16 on HCVpp (Hepatitis C virus genotype 4); assay: cell-based or functional assay
[3] = biological target: HCV E1E2 glycoproteins of isolate 5.15.11 on HCVpp (Hepatitis C virus genotype 5); assay: cell-based or functional assay
[4] = biological target: HCV E1E2 glycoproteins of isolate 1B5.23 on HCVpp (Hepatitis C virus genotype 1); assay: cell-based or functional assay
[5] = biological target: HCV E1E2 glycoproteins of genotype 2a JFH1 on HCVpp (Hepatitis C virus genotype 2a, UniProt Q99IB8 384-750; Q99IB8 192-383); assay: cell-based or functional assay
[6] = biological target: HCV E1E2 glycoproteins of genotype 3a F4/2-35 on HCVpp (Hepatitis C virus genotype 3a); assay: cell-based or functional assay
[7] = biological target: HCV E1E2 glycoproteins of isolate 1A20.8 on HCVpp (Hepatitis C virus genotype 1); assay: cell-based or functional assay
[8] = biological target: HCV E1E2 glycoproteins of isolate 2B1.1 on HCVpp (Hepatitis C virus genotype 2); assay: cell-based or functional assay
[9] = biological target: HCV E1E2 glycoproteins of isolate 6.5.8 on HCVpp (Hepatitis C virus genotype 6); assay: cell-based or functional assay
[10] = biological target: HCV E1E2 glycoproteins of isolate 2A2.4 on HCVpp (Hepatitis C virus genotype 2); assay: cell-based or functional assay
E2 peptide B1 [11] = biological target: T2, E2 peptide B1 (not fully specified (residue 16, C-terminus); also: biotin at C-terminal GSGK, site not given here); assay: peptide ELISA, signal as percent of maximum H6 binding
T2 peptide: NLINTNGSWHINGSGK

[12] = biological target: T3, peptide H6 (AP33 mimotope) (not fully specified (residue 16, C-terminus); printed as VELRNLGGTWRPGSGK-biotin; also: biotin at C-terminal GSGK, site not given here); assay: peptide ELISA, biotinylated peptide on streptavidin, COS7 supernatant, OD 655 nm
T3 construct: Mimotope for AP33 identified by phage display; captured on streptavidin plates; also called mimotope H6; H6 mimotope
T3 peptide: VELRNLGGTWRPGSGK

Peptide D3 [13] = biological target: T1, Peptide D3; assay: as above
[14] = biological target: T3, peptide H6 (AP33 mimotope); assay: as above
E2 peptide B1 [15] = biological target: T2, E2 peptide B1; assay: as above
Peptide D3 [16] = biological target: T1, Peptide D3; assay: as above
[17] = biological target: T3, peptide H6 (AP33 mimotope); assay: as above
E2 peptide B1 [18] = biological target: T2, E2 peptide B1; assay: as above
Peptide D3 [19] = biological target: T1, Peptide D3; assay: as above
[20] = biological target: T3, peptide H6 (AP33 mimotope); assay: as above
E2 peptide B1 [21] = biological target: T2, E2 peptide B1; assay: as above
Peptide D3 [22] = biological target: T1, Peptide D3; assay: as above
[23] = biological target: T3, peptide H6 (AP33 mimotope); assay: as above
E2 peptide B1 [24] = biological target: T2, E2 peptide B1; assay: as above
E2 peptide B1 [25] = biological target: T2, E2 peptide B1; assay: as above
[26] = biological target: T3, peptide H6 (AP33 mimotope); assay: as above
E2 peptide B1 [27] = biological target: T2, E2 peptide B1; assay: as above

HCV E1E2 glycoproteins of genotype 2a JFH1 on HCVpp, sequence (Q99IB8 384-750 limits assumed, chain 1 of 2): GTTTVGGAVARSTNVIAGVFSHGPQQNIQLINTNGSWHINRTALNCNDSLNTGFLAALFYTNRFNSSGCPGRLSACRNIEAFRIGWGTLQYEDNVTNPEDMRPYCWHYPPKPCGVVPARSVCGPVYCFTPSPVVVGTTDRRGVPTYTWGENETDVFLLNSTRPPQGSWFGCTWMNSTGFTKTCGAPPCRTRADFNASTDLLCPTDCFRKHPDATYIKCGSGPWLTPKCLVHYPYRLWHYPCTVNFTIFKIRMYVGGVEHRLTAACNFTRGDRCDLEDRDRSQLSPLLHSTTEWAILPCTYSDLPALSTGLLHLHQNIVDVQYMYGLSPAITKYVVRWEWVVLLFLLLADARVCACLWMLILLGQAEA
HCV E1E2 glycoproteins of genotype 2a JFH1 on HCVpp, sequence (Q99IB8 192-383 limits assumed, chain 2 of 2): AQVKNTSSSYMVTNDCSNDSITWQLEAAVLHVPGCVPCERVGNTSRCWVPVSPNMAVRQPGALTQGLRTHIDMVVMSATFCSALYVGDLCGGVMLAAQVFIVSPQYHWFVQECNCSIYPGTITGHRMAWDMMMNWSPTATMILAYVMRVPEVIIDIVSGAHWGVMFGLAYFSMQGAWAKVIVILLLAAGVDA

B1: chimeric AP33 antibody (Vh/Vl) (antibody, V domains shown)
VH: EVQLQESGPSLVKPSQTLSLTCSVTGDSITSGYWNWIRKFPGNKLEYMGYISYSGSTYYNLSLRSRISITRDTSKNQYYLQLNSVTTEDTATYYCALITTTTYAMDYWGQGTSVTVS
VL: NIVLTQSPVSLAVSLGQRATISCRASESVDGYGNSFLHWFQQKPGQPPKLLIYLASNLNSGVPARFSGSGSRTDFTLTIDPVEADDAATYYCQQNNVDPWTFGGGTKLEIK
notes: also called chimeric antibody
Peptide D3 [1]
  EC50 (read off the curve): ~0.02 µg/mL
[2]
  IC50 of HCVpp infection of Huh-7 cells (luciferase): < 0.137 µg/mL
  IC90 of HCVpp infection of Huh-7 cells (luciferase): 0.83 µg/mL
[3]
  IC50 of HCVpp infection of Huh-7 cells (luciferase): 0.088 µg/mL
  IC90 of HCVpp infection of Huh-7 cells (luciferase): 1.11 µg/mL
[4]
  IC50 of HCVpp infection of Huh-7 cells (luciferase): 1.15 µg/mL
  IC90 of HCVpp infection of Huh-7 cells (luciferase): 11 µg/mL
[5]
  IC50 of HCVpp infection of Huh-7 cells (luciferase): 1.1 µg/mL
  IC90 of HCVpp infection of Huh-7 cells (luciferase): 9.31 µg/mL
[6]
  IC50 of HCVpp infection of Huh-7 cells (luciferase): 0.48 µg/mL
  IC90 of HCVpp infection of Huh-7 cells (luciferase): 3.2 µg/mL
[7]
  IC50 of HCVpp infection of Huh-7 cells (luciferase): 1.1 µg/mL
  IC90 of HCVpp infection of Huh-7 cells (luciferase): 11.5 µg/mL
[8]
  IC50 of HCVpp infection of Huh-7 cells (luciferase): 3 µg/mL
  IC90 of HCVpp infection of Huh-7 cells (luciferase): > 15 µg/mL
[9]
  IC50 of HCVpp infection of Huh-7 cells (luciferase): < 0.137 µg/mL
  IC90 of HCVpp infection of Huh-7 cells (luciferase): 3.7 µg/mL
[10]
  IC50 of HCVpp infection of Huh-7 cells (luciferase): 0.88 µg/mL
  IC90 of HCVpp infection of Huh-7 cells (luciferase): 6.67 µg/mL

B2: humanized AP33 antibody RHb-h/RK2bc (antibody, V domains shown)
VH: QVQLQESGPGLVKPSETLSLTCTVSGDSITSGYWNWIRQPPGRALEYMGYISYSGSTYYNLSLRSRITISRDTSKNQYSLRLSSVTAADTAMYYCALITTTTYAMDYWGQGTTVTVS
VL: EIVLTQSPSSLSASVGDRVTITCRASESVDGYGNSFLHWFQQKPGKAPKLLIYLASNLNSGVPSRFSGSGSRTDFTLTISSLQPEDFATYYCQQNNVDPWTFGQGTKLEIK
notes: also called RHbcdefgh/RK2bc; RHb-h standard
E2 peptide B1 [11]
  binding result: no binding (tested: at least about 500 ng/ml)
[12]
  EC50 (read off the curve): ~0.04 µg/mL
Peptide D3 [13]
  EC50 (read off the curve): ~0.05 µg/mL
[14]
  EC50 (read off the curve): ~0.04 µg/mL

B3: humanized AP33 antibody RH-C/RK2bc (antibody, V domains shown)
VH: QVQLQESGPGLVKPSETLSLTCTVSGDSITSGYWNWIRQPPGRALEWMGYISYSGSTYYNLSLRSRITISRDTSKNQYSLRLSSVTAADTAMYYCALITTTTYAMDYWGQGTTVTVSS
VL: EIVLTQSPSSLSASVGDRVTITCRASESVDGYGNSFLHWFQQKPGKAPKLLIYLASNLNSGVPSRFSGSGSRTDFTLTISSLQPEDFATYYCQQNNVDPWTFGQGTKLEIK
notes: also called RH-C (peptide ELISA, paired with RK2bc)
E2 peptide B1 [15]
  binding result: no binding (tested: about 2000 ng/ml)
Peptide D3 [16]
  EC50 (read off the curve): ~0.05 µg/mL
[17]
  EC50 (read off the curve): ~0.04 µg/mL

B4: AP33 RH-D/RK2bc (antibody, V domains shown)
VH: QVQLQESGPGLVKPSETLSLTCTVSGDSITSGYWNWIRQPPGRALEYIGYISYSGSTYYNLSLRSRITISRDTSKNQYSLRLSSVTAADTAMYYCALITTTTYAMDYWGQGTTVTVS
VL: EIVLTQSPSSLSASVGDRVTITCRASESVDGYGNSFLHWFQQKPGKAPKLLIYLASNLNSGVPSRFSGSGSRTDFTLTISSLQPEDFATYYCQQNNVDPWTFGQGTKLEIK
E2 peptide B1 [18]
  binding result: no binding (tested: about 900 ng/ml)
Peptide D3 [19]
  EC50 (read off the curve): ~0.04 µg/mL
[20]
  EC50 (read off the curve): ~0.04 µg/mL

B5: AP33 RH-E/RK2bc (antibody, V domains shown)
VH: QVQLQESGPGLVKPSETLSLTCTVSGDSITSGYWNWIRQPPGRALEYMGYISYSGSTYYNLSLRSRVTISRDTSKNQYSLRLSSVTAADTAMYYCALITTTTYAMDYWGQGTTVTVS
VL: EIVLTQSPSSLSASVGDRVTITCRASESVDGYGNSFLHWFQQKPGKAPKLLIYLASNLNSGVPSRFSGSGSRTDFTLTISSLQPEDFATYYCQQNNVDPWTFGQGTKLEIK
E2 peptide B1 [21]
  binding result: no binding (tested: about 800 ng/ml)

B6: humanized AP33 antibody RH-H/RK2bc (antibody, V domains shown)
VH: QVQLQESGPGLVKPSETLSLTCTVSGDSITSGYWNWIRQPPGRALEYMGYISYSGSTYYNLSLRSRITISRDTSKNQYSLRLSSVTAADTAMYYCARITTTTYAMDYWGQGTTVTVS
VL: EIVLTQSPSSLSASVGDRVTITCRASESVDGYGNSFLHWFQQKPGKAPKLLIYLASNLNSGVPSRFSGSGSRTDFTLTISSLQPEDFATYYCQQNNVDPWTFGQGTKLEIK
notes: also called RH-H (peptide ELISA, paired with RK2bc)
Peptide D3 [22]
  EC50 (read off the curve): ~0.04 µg/mL
[23]
  EC50 (read off the curve): ~0.03 µg/mL
E2 peptide B1 [11]
  binding result: no binding (tested: at least about 500 ng/ml)

B7: humanized AP33 antibody RH-F/RK2bc (antibody, V domains shown)
VH: QVQLQESGPGLVKPSETLSLTCTVSGDSITSGYWNWIRQPPGRALEYMGYISYSGSTYYNLSLRSRITISVDTSKNQYSLRLSSVTAADTAMYYCALITTTTYAMDYWGQGTTVTVS
VL: EIVLTQSPSSLSASVGDRVTITCRASESVDGYGNSFLHWFQQKPGKAPKLLIYLASNLNSGVPSRFSGSGSRTDFTLTISSLQPEDFATYYCQQNNVDPWTFGQGTKLEIK
E2 peptide B1 [24]
  binding result: no binding (tested: about 500 ng/ml)

B8: humanized AP33 antibody RH-G/RK2bc (antibody, V domains shown)
VH: QVQLQESGPGLVKPSETLSLTCTVSGDSITSGYWNWIRQPPGRALEYMGYISYSGSTYYNLSLRSRITISRDTSKNQFSLRLSSVTAADTAMYYCALITTTTYAMDYWGQGTTVTVS
VL: EIVLTQSPSSLSASVGDRVTITCRASESVDGYGNSFLHWFQQKPGKAPKLLIYLASNLNSGVPSRFSGSGSRTDFTLTISSLQPEDFATYYCQQNNVDPWTFGQGTKLEIK
E2 peptide B1 [25]
  binding result: no binding (tested: about 700 ng/ml)
[26]
  EC50 (read off the curve): ~0.03 µg/mL

B9: AP33 RH-B/RK2bc (antibody, V domains shown)
VH: QVQLQESGPGLVKPSETLSLTCTVSGDSISSGYWNWIRQPPGRALEYMGYISYSGSTYYNLSLRSRITISRDTSKNQYSLRLSSVTAADTAMYYCALITTTTYAMDYWGQGTTVTVSS
VL: EIVLTQSPSSLSASVGDRVTITCRASESVDGYGNSFLHWFQQKPGKAPKLLIYLASNLNSGVPSRFSGSGSRTDFTLTISSLQPEDFATYYCQQNNVDPWTFGQGTKLEIK
E2 peptide B1 [27]
  binding result: no binding (tested: about 800 ng/ml)
